Biological target: the molecule itself
Assay: cryo-EM structure; dual motor condition: GFP-tagged myosin V and myosin VI anchored to a holey carbon grid by an anti-GFP antibody, F-actin applied, then MB-ATP (20 mM MOPS pH 7.4, 5 mM MgCl2, 0.1 mM EGTA, 1 mM DTT, 1 mM ATP, 0.01% NP-40) with α-catenin ABD for 30 s before plunge freezing; 0.6 µM F-actin and 1 µM α-catenin ABD (sub-saturating); consensus map 10.4 Å, 3DVA-sorted map 12.3 Å

B1: C-terminal actin-binding domain (ABD) of human α-catenin (amino acids 664–906) (domain or fragment, UniProt P35221 664-906, looked up)
chain: IAGQSARAIMAQLPQEQKAKIAEQVASFQEEKSKLDAEVSKWDDSGNDIIVLAKQMCMIMMEMTDFTRGKGPLKNTSDVISAAKKIAEAGSRMDKLGRTIADHCPDSACKQDLLAYLQRIALYCHQLNICSKVKAEVQNLGGELVVSGVDSAMSLIQAAKNLMNAVVQTVKASYVASTKYQKSQGMASLNLPAVSWKMKAPEKKPLVKREKQDETQTKIKRASQKKHVNPVQALSEFKAMDSI
notes: the tags were removed with TEV protease; also called α-catenin ABD; αE-catenin ABD; source: E. coli Rosetta2(DE3), purified (Ni-NTA, TEV cleavage, anion exchange, SEC); not shown: His6, N-terminal, cleaved; strep tag, N-terminal, cleaved
B1: binds.
